Measurements reported in US20060141460A1, “Assays for fprl-1 ligands” (AstraZeneca A B, priority 2002, published 2006).
Where “and” joins values, the source holds several entries; their conditions need not be identical. Equal values may be shown once. Read-outs that look alike come from different tables or passages of the source. Each block holds one molecule with its values, some of them ahead of it. Where no end group is shown, it is not given here.

Assays:
[1] = target: human formyl peptide receptor-like-1 (FPRL-1) receptor (human) (UniProt P25090); experiment: cell-based or functional assay
[2] = target: human formyl peptide receptor-like-1 (FPRL-1) receptor (human) (UniProt P25090); experiment: displacement of [125I]-WKYMVm from membranes of CHO cells stably expressing FPRL-1 (n = 3)
PMNs [3] = experiment: [Ca2+]i mobilization in PMNs (FLIPR); assay type: cell-based, human; conditions: n as in cell
Source text: Neutrophils play a pivotal role in the innate immune response to infection. Since these cells express FPRL-1, we evaluated the effect of CKβ8-1 (aa46-137) on PMNs calcium mobilization using the FLIPR system.

FPRL-1 [4] = target: T1, FPRL-1 (Homo sapiens, UniProt P25090); assay type: cell-based
T1 sequence (P25090 1-351): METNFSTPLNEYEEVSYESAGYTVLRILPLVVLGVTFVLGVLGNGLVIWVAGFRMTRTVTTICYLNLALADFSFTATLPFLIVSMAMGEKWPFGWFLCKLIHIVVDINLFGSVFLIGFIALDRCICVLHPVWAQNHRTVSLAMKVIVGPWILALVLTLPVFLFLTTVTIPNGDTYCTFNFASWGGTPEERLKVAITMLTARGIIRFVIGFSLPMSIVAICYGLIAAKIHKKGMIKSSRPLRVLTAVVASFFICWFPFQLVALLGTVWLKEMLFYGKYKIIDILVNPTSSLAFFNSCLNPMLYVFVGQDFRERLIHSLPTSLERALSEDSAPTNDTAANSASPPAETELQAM
Description: A stable receptor pool of FPRL-1 was developed by applying an antibiotic selection (G418, 1 mg/ml) and the cells were maintained in this selection medium.
A functional assay was performed with FLIPR (Fluorescent Imaging Plate Reader, Molecular Devices, Sunnyvale, Calif.) using the fluorescent calcium indicator Fluo-3 (Molecular Probes, Inc., Eugene, Oreg.) on a 96-well platform. […] On the day of the experiment, the FPRL-1-transfected cells were loaded with fluorescent solution (Dulbecco's modified medium containing 4 μM Fluo-3 and 20% pluronic acid). The cells were incubated at 37° C. for one hour in a humidified chamber. Following the incubation step, cells were washed five times in Hanks' with 20 mM Hepes and 0.1% BSA (pH 7.4). The cells were analyzed using the FLIPR system to measure the mobilization of intracellular calcium in response to different compounds.
Cell lines transiently expressing human FPRL-1 were stimulated with compounds, and calcium responses were compared to parental cells.

PMNs [5] = experiment: PMNs chemotaxis; assay type: cell-based, human
Description: The physiological relevance of CKβ8-1 (aa46-137) as a ligand for FPRL-1 was assessed by PMNs chemotaxis experiments.

FPRL-1 [6] = target: T1, FPRL-1; assay type: cell-based; remark: listed apart in the source
FPRL-1 [7] = target: T1, FPRL-1; experiment: Inhibition of forskolin-stimulated cAMP accumulation (adenylyl cyclase) in CHO cells expressing FPRL-1; assay type: cell-based; conditions: n as in cell
FPRL-1 [8] = target: T1, FPRL-1; experiment: [125I]-W-peptide (WKYMVm) displacement on membranes from CHO cells stably expressing FPRL-1; assay type: binding
[9] = target: human formyl peptide receptor-like-1 (FPRL-1) receptor (human) (UniProt P25090); experiment: cell-based or functional assay; remark: listed apart in the source
[10] = calcium mobilization, cells co-expressing Gα16 and FPRL-1
[11] = CHO cells co-expressing Gα16 and FPRL-1, mean±s.e. mean

Molecule: MIP-1α: ligand tested in PMNs
pEC50 (PMNs [3]): inactive (n = 4)

Molecule: CSCC[C@H](NC(=O)[C@@H](NC(=O)[C@H](CCSC)NC(=O)[C@H](Cc1ccc(O)cc1)NC(=O)[C@H](CCCCN)NC(=O)[C@@H](N)Cc1c[nH]c2ccccc12)C(C)C)C(N)=O [W-peptide]
concentration at which the maximum percentage of cell migration was reached (PMNs [5]): 100 nM
calcium response (FPRL-1 [6]; CHO cells transiently expressing FPRL-1, absence of Gα16): consistent calcium response
effect of pertussis toxin (PTX) pre-treatment on ligand-induced Ca2+ response (FPRL-1 [6]; CHO-K1 transiently expressing FPRL-1, PTX pre-treatment): completely abolished

Molecule: Human Prion protein (hPrP) (from UniProt P04156 106-126)
Intracellular Ca2+ mobilization pEC50 (n = 3), CHO cells (-log of the EC50) [1]: < 6

Molecule: CCCCC[C@H](O)/C=C/C=C\C=C\C=C\[C@@H](O)[C@@H](O)CCCC(=O)O [Lipoxin A4 (LXA4), Lipoxin A4]
Intracellular Ca2+ mobilization pEC50 (n = 3) (FPRL-1 [4]; [11]): <6.0
Adenylyl cylase pIC50 (FPRL-1 [7]): <5.7 (n = 2)
pEC50 (PMNs [3]): inactive (n = 4)
[125I]-W-peptide (WKYMVm) Displacement pIC50 (n = 3) (FPRL-1 [8]): inactive

Molecule: CKβ8 (aa22-120) (from UniProt P55773 22-120) (ligand)
Intracellular Ca2+ mobilization pEC50 (n = 3), CHO cells (-log of the EC50) [1]: < 5

Molecule: SHAAG peptide
Intracellular Ca2+ mobilization pEC50 (n = 3), CHO cells (-log of the EC50) [1]: 6.74
fold higher potency than CKβ8-1 (aa22-137), calcium mobilization [1]: 120 fold
fold lower potency than CKβ8-1 (aa46-137), calcium mobilization [1]: 60 to 200 fold

The remaining lines, values ahead:

Adenylyl cylase pIC50 (inhibition of forskolin-stimulated cAMP accumulation), CHO cells (-log of the IC50) [1]: 9.02
EC50, intracellular calcium mobilization (FLIPR), CHO cells transiently expressing hFPRL-1 in Gα16 background, n = 1 [1]: 0.69 nM
EC50, intracellular calcium mobilization (FLIPR), CHO cells transiently expressing hFPRL-1 in Gα16 background, n = 2 [1]: 0.14 nM
EC50, intracellular calcium mobilization (FLIPR), CHO cells transiently expressing hFPRL-1 in Gαqi5 background, n = 1 [1]: 2.9 nM
EC50, intracellular calcium mobilization (FLIPR), CHO cells transiently expressing hFPRL-1 in Gαqi5 background, n = 2 [1]: 2.5 nM
Emax, intracellular calcium mobilization (FLIPR), CHO cells transiently expressing hFPRL-1 in Gα16 background, n = 1 [1]: 4120 RFU
Emax, intracellular calcium mobilization (FLIPR), CHO cells transiently expressing hFPRL-1 in Gα16 background, n = 2 [1]: 6330 RFU
Emax, intracellular calcium mobilization (FLIPR), CHO cells transiently expressing hFPRL-1 in Gαqi5 background, n = 1 [1]: 4600 RFU
Emax, intracellular calcium mobilization (FLIPR), CHO cells transiently expressing hFPRL-1 in Gαqi5 background, n = 2 [1]: 5950 RFU
Intracellular Ca2+ mobilization pEC50 (n = 3), CHO cells (-log of the EC50) [1]: 9.13
concentration giving the maximum percentage of cell migration, PMN chemotaxis [1]: 1 µM
pEC50, [Ca2+]i mobilization in PMNs (-log of the EC50) [1]: 7.42
pIC50 (-log of the IC50) [2]: 7.97
Molecule: recombinant human CKβ8-1 (aa46-137) (from UniProt P55773 46-137) (ligand)

concentration giving the maximum percentage of cell migration, PMN chemotaxis [1]: 12 µM
pEC50, [Ca2+]i mobilization in PMNs (-log of the EC50) [1]: 7.17
Molecule: MMK-1 (peptide)

Intracellular Ca2+ mobilization pEC50 (n = 3), CHO cells (-log of the EC50) [1]: < 5.7
fold lower potency at FPRL-1 than at CCR1, calcium mobilization [1]: 200 to 300 fold
Molecule: CKβ8-1 (aa22-137) (from UniProt P55773 22-137) (ligand)

Intracellular Ca2+ mobilization pEC50 (n = 3), CHO cells (-log of the EC50) [1]: < 5
Molecule: CKβ8 (aa46-120) (from UniProt P55773 46-120) (ligand)

pEC50 (PMNs [3]): 8.76 ± 0.24 (n = 3)
Molecule: IL-8: known to activate CXCR1 and CXCR2 receptors

EC50 (FPRL-1 [4]; Intracellular Ca2+ mobilization pEC50 (n = 3), CHO cells co-expressing Gα16 and FPRL-1, mean±s.e. mean): 182 nM
times less potent at FPRL-1 as compared to CKβ8-1 (aa46-137) (FPRL-1 [4]; [10]): 60 to 200 times
times more potent than the long form CKβ8-1(aa22-137) (FPRL-1 [4]; [10]): ~120 times
Molecule: LWRRKIGPQMTLSHAAG [SHAAG peptide]

Intracellular Ca2+ mobilization pEC50 (n = 3) (FPRL-1 [4]; [11]): 6.88 ± 0.07
Adenylyl cylase pIC50 (FPRL-1 [7]): 6.38 and 6.48
Adenylyl cylase pIC50 (inhibition of forskolin-stimulated cAMP accumulation), CHO cells (-log of the IC50) [9]: 6.38 and 6.48
Intracellular Ca2+ mobilization pEC50 (n = 3), CHO cells (-log of the EC50) [9]: 6.88
pEC50, [Ca2+]i mobilization in PMNs (-log of the EC50) [9]: < 5.7
pEC50 (PMNs [3]): <5.7 (n = 3)
[125I]-W-peptide (WKYMVm) Displacement pIC50 (n = 3) (FPRL-1 [8]): <5.52
[125I]-W-peptide (WKYMVm) Displacement pIC50 (n = 3) (FPRL-1 [8]; listed as SAA): < 5.52
B1: Serum Amyloid A protein (SAA) (ligand, UniProt P0DJI8 19-122, looked up, species assumed)
Serum amyloid A-1 protein: RSFFSFLGEAFDGARDMWRAYSDMREANYIGSDKYFHARGNYDAAKRGPGGAWAAEVITDARENIQRFFGHGAEDSLADQAANEWGRSGKDPNHFRPAGLPEKY
